In publication PMC11068555 one finds stoichiometry N data, which are given here for two substances.

Experiment [1] deals with SHC014 S Foldon his (prefusion stabilized spike ectodomain) (sarbecovirus SHC014 (clade 1a) | bacteriophage T4). Kind of experiment: native gel or EMSA. A general note: Mobility shift assays separate free from complexed probe on a gel.
For experiment [2], the target named is WIV1 S Foldon his (prefusion stabilized spike ectodomain) (sarbecovirus WIV1 (clade 1a) | bacteriophage T4). Kind of experiment: native gel or EMSA.

In general, stoichiometry N refers to the number of molecules, sites or subunits per partner or assembly. “SHC014 S Foldon his (prefusion stabilized spike ectodomain) (domain or fragment)” gave a stoichiometry N in experiment [1] of 3.

On to “WIV1 S Foldon his (prefusion stabilized spike ectodomain) (domain or fragment)”, for which the stoichiometry N in experiment [2] was found to be 3.
